Reference: the supplement of paper PMC10567573

B1: TRAF3IP2 (parent)
chain: KEHVPTWLQNTHVYSWPKNKKNIL
B2: NFE2L1 (parent)
chain: TLDGYGIHPKSIDLDNYFTARRLL

Variants of: B1
Experiment: protein stability index of a GFP-peptide fusion (GPS, HEK-293T) (PSI 1-6); higher = more stable
Conditions: c terminus: a fixed tail appended
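Note: lentivirally expressed fusions sorted by FACS into six bins by GFP to DsRed ratio, PSI derived from sequencing read proportions per bin multiplied by bin number.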

Variant	protein stability index
KEHVPTWLQNTHVYSWPKNKKRIL [N22R]	2.2
KEHVPTWLQNTHVYSWPKNKKPIL [N22P]	2.84
KEHVPTWLQNTHVYSWPKNKKYIL [N22Y]	1.56
KEHVPTWLQNTHVYSWPKNKKAIL [N22A]	2.41
KEHVPTWLQNTHVYSWPKNKKVIL [N22V]	2.51
KEHVPTWLQNTHVYSWPKNKKHIL [N22H]	2.08
KEHVPTWLQNTHVYSWPKNKKKIL [N22K]	2.9
KEHVPTWLQNTHVYSWPKNKKEIL [N22E]	2.64
KEHVPTWLQNTHVYSWPKNKKLIL [N22L]	1.7
KEHVPTWLQNTHVYSWPKNKKTIL [N22T]	2.75
KEHVPTWLQNTHVYSWPKNKKSIL [N22S]	1.97
KEHVPTWLQNTHVYSWPKNKKDIL [N22D]	2.04
KEHVPTWLQNTHVYSWPKNKKIIL [N22I]	1.5
KEHVPTWLQNTHVYSWPKNKKMIL [N22M]	2.19
KEHVPTWLQNTHVYSWPKNKKCIL [N22C]	1.71
KEHVPTWLQNTHVYSWPKNKKQIL [N22Q]	2.72
KEHVPTWLQNTHVYSWPKNKKFIL [N22F]	1.67
KEHVPTWLQNTHVYSWPKNKKGIL [N22G]	2.7
KEHVPTWLQNTHVYSWPKNKLNIL [K21L]	2.18
KEHVPTWLQNTHVYSWPKNKSNIL [K21S]	2.24
KEHVPTWLQNTHVYSWPKNKWNIL [K21W]	1.97
KEHVPTWLQNTHVYSWPKNKFNIL [K21F]	1.8
KEHVPTWLQNTHVYSWPKNKCNIL [K21C]	2.3
KEHVPTWLQNTHVYSWPKNKYNIL [K21Y]	1.83
KEHVPTWLQNTHVYSWPKNKANIL [K21A]	2.08

Variant	protein stability index
KEHVPTWLQNTHVYSWPKNKTNIL [K21T]	2.65
KEHVPTWLQNTHVYSWPKNKINIL [K21I]	2.12
KEHVPTWLQNTHVYSWPKNKMNIL [K21M]	1.95
KEHVPTWLQNTHVYSWPKNKPNIL [K21P]	2.79
KEHVPTWLQNTHVYSWPKNKGNIL [K21G]	2.31
KEHVPTWLQNTHVYSWPKNKHNIL [K21H]	2.17
KEHVPTWLQNTHVYSWPKNKRNIL [K21R]	2.05
KEHVPTWLQNTHVYSWPKNKNNIL [K21N]	1.93
KEHVPTWLQNTHVYSWPKNKDNIL [K21D]	2.73
KEHVPTWLQNTHVYSWPKNKVNIL [K21V]	2.03
KEHVPTWLQNTHVYSWPKNKQNIL [K21Q]	2.27
KEHVPTWLQNTHVYSWPKNKENIL [K21E]	2.68
KEHVPTWLQNTHVYSWPGNKKNIL [K18G]	2.53
KEHVPTWLQNTHVYSWPDNKKNIL [K18D]	2.17
KEHVPTWLQNTHVYSWPFNKKNIL [K18F]	2.12
KEHVPTWLQNTHVYSWPANKKNIL [K18A]	2.66
KEHVPTWLQNTHVYSWPHNKKNIL [K18H]	2.37
KEHVPTWLQNTHVYSWPTNKKNIL [K18T]	2.52
KEHVPTWLQNTHVYSWPPNKKNIL [K18P]	3.12
KEHVPTWLQNTHVYSWPCNKKNIL [K18C]	2.33
KEHVPTWLQNTHVYSWPLNKKNIL [K18L]	2.41
KEHVPTWLQNTHVYSWPSNKKNIL [K18S]	2.1
KEHVPTWLQNTHVYSWPINKKNIL [K18I]	2.05
KEHVPTWLQNTHVYSWPQNKKNIL [K18Q]	3.64
KEHVPTWLQNTHVYSWPENKKNIL [K18E]	2.88

Variant	protein stability index
KEHVPTWLQNTHVYSWPMNKKNIL [K18M]	2.42
KEHVPTWLQNTHVYSWPYNKKNIL [K18Y]	3.3
KEHVPTWLQNTHVYSWPNNKKNIL [K18N]	2.81
KEHVPTWLQNTHVYSWPWNKKNIL [K18W]	1.91
KEHVPTWLQNTHVYSWPVNKKNIL [K18V]	2.14
KEHVPTWLQNTHVYSWPRNKKNIL [K18R]	3.38
KEHVPTWLQNTHVYSDPKNKKNIL [W16D]	3.53
KEHVPTWLQNTHVYSRPKNKKNIL [W16R]	3.9
KEHVPTWLQNTHVYSLPKNKKNIL [W16L]	3.02
KEHVPTWLQNTHVYSPPKNKKNIL [W16P]	3.82
KEHVPTWLQNTHVYSTPKNKKNIL [W16T]	3.68
KEHVPTWLQNTHVYSNPKNKKNIL [W16N]	3.39
KEHVPTWLQNTHVYSVPKNKKNIL [W16V]	2.88
KEHVPTWLQNTHVYSIPKNKKNIL [W16I]	3.05
KEHVPTWLQNTHVYSSPKNKKNIL [W16S]	3.08
KEHVPTWLQNTHVYSQPKNKKNIL [W16Q]	3.36
KEHVPTWLQNTHVYSYPKNKKNIL [W16Y]	3
KEHVPTWLQNTHVYSFPKNKKNIL [W16F]	2.7
KEHVPTWLQNTHVYSMPKNKKNIL [W16M]	2.75
KEHVPTWLQNTHVYSCPKNKKNIL [W16C]	2.88
KEHVPTWLQNTHVYSEPKNKKNIL [W16E]	3.77
KEHVPTWLQNTHVYSKPKNKKNIL [W16K]	2.81
KEHVPTWLQNTHVYSHPKNKKNIL [W16H]	3.39
KEHVPTWLQNTHVYSAPKNKKNIL [W16A]	3.35
KEHVPTWLQNTHVYSGPKNKKNIL [W16G]	3.55

Variant	protein stability index
KEHVPTWLQNTHVYSWPKNKKNGL [I23G]	2.96
KEHVPTWLQNTHVYSWPKNKKNPL [I23P]	2.54
KEHVPTWLQNTHVYSWPKNKKNKL [I23K]	3.52
KEHVPTWLQNTHVYSWPKNKKNVL [I23V]	3.07
KEHVPTWLQNTHVYSWPKNKKNQL [I23Q]	2.75
KEHVPTWLQNTHVYSWPKNKKNML [I23M]	2.91
KEHVPTWLQNTHVYSWPKNKKNFL [I23F]	2.69
KEHVPTWLQNTHVYSWPKNKKNNL [I23N]	3.19
KEHVPTWLQNTHVYSWPKNKKNDL [I23D]	3.75
KEHVPTWLQNTHVYSWPKNKKNCL [I23C]	3.02
KEHVPTWLQNTHVYSWPKNKKNRL [I23R]	3.74
KEHVPTWLQNTHVYSWPKNKKNAL [I23A]	2.89
KEHVPTWLQNTHVYSWPKNKKNYL [I23Y]	3.55
KEHVPTWLQNTHVYSWPKNKKNSL [I23S]	2.94
KEHVPTWLQNTHVYSWPKNKKNLL [I23L]	2.68
KEHVPTWLQNTHVYSWPKNKKNEL [I23E]	3.54
KEHVPTWLQNTHVYSWPKNKKNHL [I23H]	3.19
KEHVPTWLQNTHVYSWPKNKKNWL [I23W]	2.3
KEHVPTWLQNTHVYSWPKNKKNTL [I23T]	2.54
KEHVPTWLQNTHVYSWPKNVKNIL [K20V]	1.99
KEHVPTWLQNTHVYSWPKNPKNIL [K20P]	2.72
KEHVPTWLQNTHVYSWPKNNKNIL [K20N]	2.02
KEHVPTWLQNTHVYSWPKNAKNIL [K20A]	1.94
KEHVPTWLQNTHVYSWPKNQKNIL [K20Q]	2.25
KEHVPTWLQNTHVYSWPKNSKNIL [K20S]	2.64

Variant	protein stability index
KEHVPTWLQNTHVYSWPKNLKNIL [K20L]	1.74
KEHVPTWLQNTHVYSWPKNEKNIL [K20E]	2.54
KEHVPTWLQNTHVYSWPKNWKNIL [K20W]	2.07
KEHVPTWLQNTHVYSWPKNMKNIL [K20M]	1.58
KEHVPTWLQNTHVYSWPKNDKNIL [K20D]	2.31
KEHVPTWLQNTHVYSWPKNIKNIL [K20I]	3.38
KEHVPTWLQNTHVYSWPKNFKNIL [K20F]	1.59
KEHVPTWLQNTHVYSWPKNTKNIL [K20T]	2.96
KEHVPTWLQNTHVYSWPKNYKNIL [K20Y]	1.81
KEHVPTWLQNTHVYSWPKNGKNIL [K20G]	2.18
KEHVPTWLQNTHVYSWPKNHKNIL [K20H]	2.21
KEHVPTWLQNTHVYSWPKNRKNIL [K20R]	2.29
KEHVPTWLQNTHVYSWPKNCKNIL [K20C]	1.89
KEHVPTWLQNTHVYSWPKNKKNIV [L24V]	2.47
KEHVPTWLQNTHVYSWPKNKKNIT [L24T]	3.18
KEHVPTWLQNTHVYSWPKNKKNIA [L24A]	3.28
KEHVPTWLQNTHVYSWPKNKKNIP [L24P]	2.98
KEHVPTWLQNTHVYSWPKNKKNIC [L24C]	2.69
KEHVPTWLQNTHVYSWPKNKKNIN [L24N]	3.08
KEHVPTWLQNTHVYSWPKNKKNIS [L24S]	2.51
KEHVPTWLQNTHVYSWPKNKKNIF [L24F]	2.2
KEHVPTWLQNTHVYSWPKNKKNIK [L24K]	3.49
KEHVPTWLQNTHVYSWPKNKKNIY [L24Y]	2.51
KEHVPTWLQNTHVYSWPKNKKNIG [L24G]	3.93
KEHVPTWLQNTHVYSWPKNKKNIW [L24W]	1.86

Variant	protein stability index
KEHVPTWLQNTHVYSWPKNKKNIQ [L24Q]	2.98
KEHVPTWLQNTHVYSWPKNKKNIH [L24H]	3.17
KEHVPTWLQNTHVYSWPKNKKNII [L24I]	2.67
KEHVPTWLQNTHVYSWPKNKKNID [L24D]	3.24
KEHVPTWLQNTHVYSWPKNKKNIR [L24R]	3.49
KEHVPTWLQNTHVYSWPKNKKNIM [L24M]	2.73
KEHVPTWLQNTHVYSWPKNKKNIE [L24E]	2.84
KEHVPTWLQNTHVYSWPKLKKNIL [N19L]	1.55
KEHVPTWLQNTHVYSWPKCKKNIL [N19C]	2.98
KEHVPTWLQNTHVYSWPKSKKNIL [N19S]	2.61
KEHVPTWLQNTHVYSWPKHKKNIL [N19H]	2.19
KEHVPTWLQNTHVYSWPKDKKNIL [N19D]	3.03
KEHVPTWLQNTHVYSWPKWKKNIL [N19W]	1.4
KEHVPTWLQNTHVYSWPKTKKNIL [N19T]	2.01
KEHVPTWLQNTHVYSWPKVKKNIL [N19V]	2.34
KEHVPTWLQNTHVYSWPKYKKNIL [N19Y]	2.03
KEHVPTWLQNTHVYSWPKKKKNIL [N19K]	2.06
KEHVPTWLQNTHVYSWPKQKKNIL [N19Q]	2.51
KEHVPTWLQNTHVYSWPKMKKNIL [N19M]	1.97
KEHVPTWLQNTHVYSWPKPKKNIL [N19P]	2.43
KEHVPTWLQNTHVYSWPKEKKNIL [N19E]	2.72
KEHVPTWLQNTHVYSWPKIKKNIL [N19I]	2.08
KEHVPTWLQNTHVYSWPKRKKNIL [N19R]	2.3
KEHVPTWLQNTHVYSWPKGKKNIL [N19G]	2.56
KEHVPTWLQNTHVYSWPKAKKNIL [N19A]	2.81

Variant	protein stability index
KEHVPTWLQNTHVYSWPKFKKNIL [N19F]	2.02
KEHVPTWLQNTHVYSWLKNKKNIL [P17L]	1.85
KEHVPTWLQNTHVYSWGKNKKNIL [P17G]	2.17
KEHVPTWLQNTHVYSWKKNKKNIL [P17K]	2.31
KEHVPTWLQNTHVYSWWKNKKNIL [P17W]	2.1
KEHVPTWLQNTHVYSWYKNKKNIL [P17Y]	2.03
KEHVPTWLQNTHVYSWNKNKKNIL [P17N]	1.95
KEHVPTWLQNTHVYSWEKNKKNIL [P17E]	2.23
KEHVPTWLQNTHVYSWHKNKKNIL [P17H]	2.21
KEHVPTWLQNTHVYSWVKNKKNIL [P17V]	1.98
KEHVPTWLQNTHVYSWDKNKKNIL [P17D]	2.71
KEHVPTWLQNTHVYSWIKNKKNIL [P17I]	2.1
KEHVPTWLQNTHVYSWAKNKKNIL [P17A]	2.22
KEHVPTWLQNTHVYSWSKNKKNIL [P17S]	2.81
KEHVPTWLQNTHVYSWTKNKKNIL [P17T]	2.29
KEHVPTWLQNTHVYSWFKNKKNIL [P17F]	2.18
KEHVPTWLQNTHVYSWCKNKKNIL [P17C]	2.36
KEHVPTWLQNTHVYSWQKNKKNIL [P17Q]	2.95
KEHVPTWLQNTHVYTWPKNKKNIL [S15T]	2.54
KEHVPTWLQNTHVYVWPKNKKNIL [S15V]	2.43
KEHVPTWLQNTHVYWWPKNKKNIL [S15W]	1.68
KEHVPTWLQNTHVYYWPKNKKNIL [S15Y]	2.27

Variants of: B2
Experiment: as above
Conditions: c terminus: a fixed tail appended

Variant	protein stability index
KLDGYGIHPKSIDLDNYFTARRLL [T1K]	1.52
ALDGYGIHPKSIDLDNYFTARRLL [T1A]	2.49
GLDGYGIHPKSIDLDNYFTARRLL [T1G]	1.46
PLDGYGIHPKSIDLDNYFTARRLL [T1P]	2.37
RLDGYGIHPKSIDLDNYFTARRLL [T1R]	1.66
ELDGYGIHPKSIDLDNYFTARRLL [T1E]	1.54
LLDGYGIHPKSIDLDNYFTARRLL [T1L]	1.57
QLDGYGIHPKSIDLDNYFTARRLL [T1Q]	1.99
DLDGYGIHPKSIDLDNYFTARRLL [T1D]	1.92
NLDGYGIHPKSIDLDNYFTARRLL [T1N]	1.61
MLDGYGIHPKSIDLDNYFTARRLL [T1M]	1.77
ILDGYGIHPKSIDLDNYFTARRLL [T1I]	1.36
CLDGYGIHPKSIDLDNYFTARRLL [T1C]	1.92
FLDGYGIHPKSIDLDNYFTARRLL [T1F]	1.3
SLDGYGIHPKSIDLDNYFTARRLL [T1S]	1.82
HLDGYGIHPKSIDLDNYFTARRLL [T1H]	1.69
